We go through 30 substances from the Human Domainome abundance scans (Beltran et al. 2025).

± gives the uncertainty stated by the source.

A short description of one data set: abundance fitness (aPCA) (normalised: wild type 0, dead -1); higher = more abundant; growth selection in yeast, the domain comes from the species named. As to conditions: Homo sapiens.
In turn, “Transcription factor SOX-4 A121T, Q06945” came in with an abundance fitness of -0.009 ± 0.06.
Regarding “Transcription factor SOX-4 D102T, Q06945”, the abundance fitness was -0.149 ± 0.05.
Take “Transcription factor SOX-4 D125N, Q06945”: the abundance fitness was -0.045 ± 0.22.
Transcription factor SOX-4 E79V, Q06945 showed an abundance fitness of -0.476 ± 0.13.
Transcription factor SOX-4 E88V, Q06945 showed an abundance fitness of -0.649 ± 0.066.
The same measure, in the same setting: the same measure for Transcription factor SOX-4 I72D, Q06945: -0.595 ± 0.46; for Transcription factor SOX-4 I77L, Q06945: -0.126 ± 0.055.
Same read-out and setting: the same measure for Transcription factor SOX-4 I89L, Q06945: -0.098 ± 0.036; for “Transcription factor SOX-4 I106R, Q06945”: -0.209 ± 0.042; for Transcription factor SOX-4 K60R, Q06945: -0.294 ± 0.066.
The same measure, in the same setting: the same measure for Transcription factor SOX-4 K95Q, Q06945: 0.115 ± 0.14; for “Transcription factor SOX-4 K101T, Q06945”: -0.029 ± 0.065.
For the substance Transcription factor SOX-4 L99A, Q06945, the abundance fitness amounted to 0.041 ± 0.062.
Still for that read-out and setting: the same measure for Transcription factor SOX-4 M78A, Q06945: -0.006 ± 0.058; for Transcription factor SOX-4 M84L, Q06945: 0.014 ± 0.055; for “Transcription factor SOX-4 M120L, Q06945”: -0.047 ± 0.082.
The same measure, in the same setting: the result for Transcription factor SOX-4 R75K, Q06945 reads 0.07 ± 0.046.
Same read-out and setting: the same measure for Transcription factor SOX-4 R92M, Q06945: 0.128 ± 0.11; for Transcription factor SOX-4 R96S, Q06945: -0.162 ± 0.17; for Transcription factor SOX-4 S70A, Q06945: 0.014 ± 0.057.
Regarding Transcription factor SOX-4 S81N, Q06945, the abundance fitness worked out at 0.007 ± 0.056.
The same measure, in the same setting: the result for “Transcription factor SOX-4 S103L, Q06945” reads -0.454 ± 0.082.
Same read-out and setting: the same measure for “Transcription factor SOX-4 Y123H, Q06945”: -0.03 ± 0.12.

Staying with this data set, now noted: Saccharomyces cerevisiae (strain ATCC 204508 / S288c).
On to “E3 ubiquitin-protein ligase RSP5 Y348P, P39940”, for which the abundance fitness is -1.17 ± 0.086.
On the same count and under the same terms, the same measure for “E3 ubiquitin-protein ligase RSP5 Y348Q, P39940”: -0.637 ± 0.054; for “E3 ubiquitin-protein ligase RSP5 Y348R, P39940”: -0.919 ± 0.049; for “E3 ubiquitin-protein ligase RSP5 Y348S, P39940”: -0.738 ± 0.077.
Same read-out and setting: the result for “E3 ubiquitin-protein ligase RSP5 Y348T, P39940” reads -0.686 ± 0.087.
The same measure, in the same setting: the same measure for “E3 ubiquitin-protein ligase RSP5 Y348V, P39940”: -0.585 ± 0.048.
Turning to “E3 ubiquitin-protein ligase RSP5 Y348W, P39940”, the abundance fitness was -0.147 ± 0.049.
